Laboratory results from patent EP4585619A1 (Cichlid Inc., dated 2025).
Numbering of substitutions follows the chain as printed.

T1: mouse VISTA protein (mVISTA-Fc, R&D Systems, Cat. No. 7005-B7) (mouse, UniProt Q9D659 33-191)
T1 construct: Bought recombinant protein; not shown: Fc part of the bought fusion protein
T1 sequence (looked up): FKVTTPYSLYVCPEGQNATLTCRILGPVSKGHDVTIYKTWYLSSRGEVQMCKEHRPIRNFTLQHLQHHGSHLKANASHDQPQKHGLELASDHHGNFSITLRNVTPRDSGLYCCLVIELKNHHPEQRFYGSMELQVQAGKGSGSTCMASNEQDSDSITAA

T2: human VISTA protein (hVISTA-Fc, R&D Systems, Cat. No. 7126-B7) (human, UniProt Q9H7M9 33-194)
T2 construct: Bought recombinant protein; not shown: Fc part of the bought fusion protein
T2 sequence (looked up): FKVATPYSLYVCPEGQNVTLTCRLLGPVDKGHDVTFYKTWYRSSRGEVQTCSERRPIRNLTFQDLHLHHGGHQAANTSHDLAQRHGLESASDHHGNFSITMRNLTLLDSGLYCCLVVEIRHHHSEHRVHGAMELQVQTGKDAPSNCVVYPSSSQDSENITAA

T3: human VISTA protein overexpressed in the NIH/3T3 cell line (human, UniProt Q9H7M9 33-311)
T3 construct: whole, on cells; Gene cloned into pCMV3-C-FLAG (Sino Biological), so a C-terminal FLAG tag is likely; On whole cells in ELISA and flow cytometry; as sonicated lysate in immunoprecipitation; as reduced, boiled RIPA lysate in the western blot; also called VISTA/NIH/3T3 cell line; VISTA-expressing cell line
T3 sequence (looked up): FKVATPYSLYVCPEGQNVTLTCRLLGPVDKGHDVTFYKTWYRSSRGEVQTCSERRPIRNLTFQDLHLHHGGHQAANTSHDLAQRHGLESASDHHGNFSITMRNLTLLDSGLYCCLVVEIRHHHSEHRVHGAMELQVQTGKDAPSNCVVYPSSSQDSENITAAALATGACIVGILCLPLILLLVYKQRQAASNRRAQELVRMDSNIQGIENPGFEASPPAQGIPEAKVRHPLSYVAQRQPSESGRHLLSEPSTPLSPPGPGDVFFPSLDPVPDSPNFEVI

B1: 4D2 full IgG1 antibody (antibody, V domains shown)
VH: EVQLLESGGGLVQPGGSLRLSCAASGFTFSSYWIAWVRQAPGKGLEWVSTISGSGGYTYYAESVKGRFTISRDNSKNTLYLQMNSLRAEDTAVYYCARDSSGWLNYWGQGTLVTVSS
VL: EIVLTQSPGTLSLSPGERATLSCRASQSITSHLAWYQQKPGQAPRLLIYDASNRATGIPDRFSGSGSGTDFTLTISRLEPEDFAVYYCQQYNNWPPITFGQGTKVEIKR
notes: scFv clone converted to full IgG1, made in CHO-S cells; also called anti-VISTA antibody
B2: 4F2 full IgG1 antibody (antibody, V domains shown)
VH: EVQLLESGGGLVQPGGSLRLSCAASGFTFSDYYMHWVRQAPGKGLEWVSEIIPIFDTANYAQKFQDRFTISRDNSKNTLYLQMNSLRAEDTAVYYCARSTGDYFDYWGQGTLVTVSS
VL: QSVLTQPPSASGTPGQRVTISCSGDKLGNKYTSWYQQLPGTAPKLLIYDNNKRPSGVPDRFSGSKSGTSASLAISGLRSEDEADYYCGTWDSSLSAYVFGGGTKLTVLR
notes: as for B1
B3: 4G3 full IgG1 antibody (antibody, V domains shown)
VH: EVQLLESGGGLVQPGGSLRLSCVASGFTFSEKSIHWVRQAPGKGLEWVSGTSANTGNTYYADSVKGRFTISRDNSKNTLYLQMNSLRAEDTAVYYCAHHNWAGYFDYWGQGTLVTVSS
VL: EIVLTQSPGILSLSPGERATLSCQASHAISNYINWYQQKPGQAPRLLIYDASNRATGIPDRFSGSGSGTDFTLTISRLEPEDFAVYYCQQSNSFPYTFGQGTKVEIKR
notes: as for B1
B4: 4H2 full IgG1 antibody (antibody, V domains shown)
VH: EVQLLESGGGLVQPGGSLRLSCAASGFTFSTAWMSWVRQAPGKGLEWVSRVNPSDSHTDYSPSFQDRFTISRDNSKNTLYLQMNSLRAEDTAVYYCARVPPGYGFDIWGQGTLVTVSS
VL: B3 VL with I10T, H27Q, A28D, S30T, I33L, N92Y, F94T, Y96F
notes: as for B1
B5: 4A2 full IgG1 antibody (antibody, V domains shown)
VH: EVQLLESGGGLVQPGGSLRLSCAASGFTFSNYAMSWVRQAPGKGLEWVSEISHSGTTNYNPSLKSRFTISRDNSKNTLYLQMNSLRAEDTAVYYCTRAIWGFDYWGQGTLVTVSS
VL: QSVLTQPPSASGTPGQRVTISCSRENIGSRSVHWYQQLPGTAPKLLIYDNNERASGVPNRFSGSKSGTSASLAISGLRSEDEADYYCQAWDSSTAVFGGGTKLTVLR
notes: scFv clone converted to full IgG1, made in CHO-S cells; also called 4A2 antibody; anti-VISTA antibody
B6: 4A3 full IgG1 antibody (antibody, V domains shown)
VH: EVQLLESGGGLVQPGGSLRLSCAASGFTFSNYYMHWVRQAPGKGLEWVSSISFTGSTSYNPSLKSRFTISRDNSKNTLYLQMNSLRAEDTAVYYCARLGIPFFTYLDYWGQGTLVTVSS
VL: QSVLTQPPSASGTPGQRVTISCGGNNIGSKSVHWYQQLPGTAPKLLIYEDTERPSGVSDRFSGSKSGTSASLAISGLRSEDEADYYCQAWDSSTVVFGGGTKLTVLR
notes: as for B1
B7: 4D2 scFv (scFv, V domains shown)
VH: B1 VH
VL: EIVLTQSPGTLSLSPGERATLSCRASQSITSHLAWYQQKPGQAPRLLIYDASNRATGIPDRFSGSGSGTDFTLTISRLEPEDFAVYYCQQYNNWPPITFGQGTKVEIK
notes: One-chain scFv with an HA tag from a synthetic human scFv library, made in E. coli
B8: 4F2 scFv (scFv, V domains shown)
VH: B2 VH
VL: QSVLTQPPSASGTPGQRVTISCSGDKLGNKYTSWYQQLPGTAPKLLIYDNNKRPSGVPDRFSGSKSGTSASLAISGLRSEDEADYYCGTWDSSLSAYVFGGGTKLTVL
notes: as for B7
B9: 4G3 scFv (scFv, V domains shown)
VH: B3 VH
VL: EIVLTQSPGILSLSPGERATLSCQASHAISNYINWYQQKPGQAPRLLIYDASNRATGIPDRFSGSGSGTDFTLTISRLEPEDFAVYYCQQSNSFPYTFGQGTKVEIK
notes: as for B7
B10: 4H2 scFv (scFv, V domains shown)
VH: B4 VH
VL: B9 VL with I10T, H27Q, A28D, S30T, I33L, N92Y, F94T, Y96F
notes: as for B7
B11: 4A2 scFv (scFv, V domains shown)
VH: B5 VH
VL: QSVLTQPPSASGTPGQRVTISCSRENIGSRSVHWYQQLPGTAPKLLIYDNNERASGVPNRFSGSKSGTSASLAISGLRSEDEADYYCQAWDSSTAVFGGGTKLTVL
notes: as for B7
B12: 4A3 scFv (scFv, V domains shown)
VH: B6 VH
VL: QSVLTQPPSASGTPGQRVTISCGGNNIGSKSVHWYQQLPGTAPKLLIYEDTERPSGVSDRFSGSKSGTSASLAISGLRSEDEADYYCQAWDSSTVVFGGGTKLTVL
notes: as for B7

Target: T1, mouse VISTA protein (mVISTA-Fc, R&D …)
Test: ELISA on coated mVISTA-Fc

Row | Binder | binding result
1 | B1 | no binding (tested: 100 ng per well)
2 | B2 | no binding (tested: 100 ng per well)
3 | B3 | no binding (tested: 100 ng per well)
4 | B4 | no binding (tested: 100 ng per well)
5 | B5 | no binding (tested: 100 ng per well)
6 | B6 | no binding (tested: 100 ng per well)

Target: T2, human VISTA protein (hVISTA-Fc, R&D …)
Test: ELISA on coated hVISTA-Fc, antibody at 100 ng per well

Row | Binder | binding result
7 | B1 | binds
8 | B2 | binds
9 | B3 | binds
10 | B4 | binds
11 | B5 | binds
12 | B6 | binds

Target: T3, human VISTA protein overexpressed in …
Test: cell ELISA of scFv on VISTA-expressing NIH/3T3 cells, anti-HA HRP

Row | Binder | binding result
13 | B7 | binds
14 | B8 | binds
15 | B9 | binds
16 | B10 | binds
17 | B11 | binds
18 | B12 | binds
